Laboratory results as given in patent US20210032299A1 (Eli Lilly, published 2021).
Starred links: 1 amine or outer side, 2 acyl side, 3 side chain; linkers in the order of their positions; H or OH if unused. Non-standard residues stand in square brackets, D forms with d. Groups on a side chain read outwards from the residue. No end group written: not given here. *: point of attachment. C20 diacid = O=C(O)CCCCCCCCCCCCCCCCCCC(=O)*; γGlu = O=C(O)[C@H](CCC(=O)[*:2])N[*:1]; αMeF = C[C@](N)(Cc1ccccc1)C(=O)O; 4Pal = N[C@@H](Cc1ccncc1)C(=O)O; αMeL = CC(C)C[C@](C)(N)C(=O)O; AEEA = NCCOCCOCC(=O)O; Aib = CC(C)(N)C(=O)O

T1: human glucose-dependent insulinotropic peptide receptor (human, UniProt P48546 22-466)
T1 sequence (looked up): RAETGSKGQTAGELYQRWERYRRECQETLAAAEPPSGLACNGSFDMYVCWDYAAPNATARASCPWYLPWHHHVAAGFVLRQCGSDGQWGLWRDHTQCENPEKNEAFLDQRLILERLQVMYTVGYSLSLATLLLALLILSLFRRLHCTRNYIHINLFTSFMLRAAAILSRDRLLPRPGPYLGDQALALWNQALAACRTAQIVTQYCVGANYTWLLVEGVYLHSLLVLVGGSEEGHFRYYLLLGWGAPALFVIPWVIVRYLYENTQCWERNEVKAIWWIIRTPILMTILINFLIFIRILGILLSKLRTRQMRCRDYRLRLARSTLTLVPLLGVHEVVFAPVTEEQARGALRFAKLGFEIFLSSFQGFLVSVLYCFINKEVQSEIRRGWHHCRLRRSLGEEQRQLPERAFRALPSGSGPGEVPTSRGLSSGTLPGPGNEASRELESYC

B1: Example 60 (peptide)
peptide: Y[Aib]EGT[αMeF]ISDYSI[αMeL]LDKK([AEEA-AEEA-γGlu-C20 diacid])HQ[Aib]EFVE[4Pal]LLAQGPSSGAPPPS-NH2
modifications: N-terminus assumed
SMILES: CC[C@H](C)[C@H](NC(=O)[C@H](CO)NC(=O)[C@H](Cc1ccc(O)cc1)NC(=O)[C@H](CC(=O)O)NC(=O)[C@H](CO)NC(=O)[C@@H](NC(=O)[C@](C)(Cc1ccccc1)NC(=O)[C@@H](NC(=O)CNC(=O)[C@H](CCC(=O)O)NC(=O)C(C)(C)NC(=O)[C@@H](N)Cc1ccc(O)cc1)[C@@H](C)O)[C@@H](C)CC)C(=O)N[C@@](C)(CC(C)C)C(=O)N[C@@H](CC(C)C)C(=O)N[C@@H](CC(=O)O)C(=O)N[C@@H](CCCCN)C(=O)N[C@@H](CCCCNC(=O)COCCOCCNC(=O)COCCOCCNC(=O)CC[C@H](NC(=O)CCCCCCCCCCCCCCCCCCC(=O)O)C(=O)O)C(=O)N[C@@H](Cc1c[nH]cn1)C(=O)N[C@@H](CCC(N)=O)C(=O)NC(C)(C)C(=O)N[C@@H](CCC(=O)O)C(=O)N[C@@H](Cc1ccccc1)C(=O)N[C@H](C(=O)N[C@@H](CCC(=O)O)C(=O)N[C@@H](Cc1ccncc1)C(=O)N[C@@H](CC(C)C)C(=O)N[C@@H](CC(C)C)C(=O)N[C@@H](C)C(=O)N[C@@H](CCC(N)=O)C(=O)NCC(=O)N1CCC[C@H]1C(=O)N[C@@H](CO)C(=O)N[C@@H](CO)C(=O)NCC(=O)N[C@@H](C)C(=O)N1CCC[C@H]1C(=O)N1CCC[C@H]1C(=O)N1CCC[C@H]1C(=O)N[C@@H](CO)C(N)=O)C(C)C
B2: Example 59 (peptide)
peptide: Y[Aib]EGTFISDYSI[αMeL]LDKK([AEEA-AEEA-γGlu-C20 diacid])HQ[Aib]EFVE[4Pal]LLAAGPSSGAPPPS-NH2
modifications: N-terminus assumed
SMILES: CC[C@H](C)[C@H](NC(=O)[C@H](Cc1ccccc1)NC(=O)[C@@H](NC(=O)CNC(=O)[C@H](CCC(=O)O)NC(=O)C(C)(C)NC(=O)[C@@H](N)Cc1ccc(O)cc1)[C@@H](C)O)C(=O)N[C@@H](CO)C(=O)N[C@@H](CC(=O)O)C(=O)N[C@@H](Cc1ccc(O)cc1)C(=O)N[C@@H](CO)C(=O)N[C@H](C(=O)N[C@@](C)(CC(C)C)C(=O)N[C@@H](CC(C)C)C(=O)N[C@@H](CC(=O)O)C(=O)N[C@@H](CCCCN)C(=O)N[C@@H](CCCCNC(=O)COCCOCCNC(=O)COCCOCCNC(=O)CC[C@H](NC(=O)CCCCCCCCCCCCCCCCCCC(=O)O)C(=O)O)C(=O)N[C@@H](Cc1c[nH]cn1)C(=O)N[C@@H](CCC(N)=O)C(=O)NC(C)(C)C(=O)N[C@@H](CCC(=O)O)C(=O)N[C@@H](Cc1ccccc1)C(=O)N[C@H](C(=O)N[C@@H](CCC(=O)O)C(=O)N[C@@H](Cc1ccncc1)C(=O)N[C@@H](CC(C)C)C(=O)N[C@@H](CC(C)C)C(=O)N[C@@H](C)C(=O)N[C@@H](C)C(=O)NCC(=O)N1CCC[C@H]1C(=O)N[C@@H](CO)C(=O)N[C@@H](CO)C(=O)NCC(=O)N[C@@H](C)C(=O)N1CCC[C@H]1C(=O)N1CCC[C@H]1C(=O)N1CCC[C@H]1C(=O)N[C@@H](CO)C(N)=O)C(C)C)[C@@H](C)CC

Assays:
Experiment in all cases: cell-based or functional assay
human glucagon receptor = human glucagon receptor (human, UniProt P47871 26-477)
[1] = biological target: T1, human glucose-dependent insulinotropic …
human GLP-1 receptor = human GLP-1 receptor (human, UniProt P43220 24-463)

Sequence of human glucagon receptor (P47871 26-477): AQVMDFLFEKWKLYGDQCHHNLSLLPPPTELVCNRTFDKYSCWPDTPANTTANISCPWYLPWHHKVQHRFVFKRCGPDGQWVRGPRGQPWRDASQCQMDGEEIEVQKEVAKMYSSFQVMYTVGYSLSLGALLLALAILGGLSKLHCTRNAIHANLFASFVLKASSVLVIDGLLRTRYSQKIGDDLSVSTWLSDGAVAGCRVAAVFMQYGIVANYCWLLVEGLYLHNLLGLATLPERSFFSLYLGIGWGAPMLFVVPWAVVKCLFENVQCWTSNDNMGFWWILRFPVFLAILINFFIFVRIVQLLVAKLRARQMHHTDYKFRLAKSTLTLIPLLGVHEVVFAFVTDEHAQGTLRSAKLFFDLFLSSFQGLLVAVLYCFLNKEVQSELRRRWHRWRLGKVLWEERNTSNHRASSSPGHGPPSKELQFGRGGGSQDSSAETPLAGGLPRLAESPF

Row | Binder | hGcgR cAMP Rel EC50 (human glucagon receptor) [µM] | hGIPR cAMP Rel EC50 [1] [nM] | hGLP1R cAMP Rel EC50 (human GLP-1 receptor) [nM]
1 | B1 | > 5 | 0.0369 | 71
2 | B2 | > 5 | 0.0202 | > 5000
